Here are results for one molecule from patent EP4702992A1, “ANTIBODY-DRUG CONJUGATE” (priority 2023, dated 2024).

In experiment [1] the target is DLL3 on the surface of NCI-H209, SHP77, NCI-H526, NCI-H82 and NCI-H69 cells (human) (UniProt Q9NYJ7). Description: flow cytometry, D-ADC55-1-8 (15 µg/mL) on NCI-H209 cells, anti-human IgG Alexa Fluor 488. On the technique in general: A flow cytometer gives signals particle by particle.
Experiment [2] has the same target. Description: flow cytometry, D-ADC55-1-8 (15 µg/mL) on NCI-H82 cells, anti-human IgG Alexa Fluor 488.
For experiment [3] the target is unchanged. The experiment is described as follows: flow cytometry, D-ADC55-1-8 (15 µg/mL) on NCI-H526 cells, anti-human IgG Alexa Fluor 488.
Experiment [4] has the same target. The experiment is described as follows: flow cytometry, D-ADC55-1-8 (15 µg/mL) on NCI-H69 cells, anti-human IgG Alexa Fluor 488.
The target is the same in experiment [5]. The experiment is described as follows: flow cytometry, D-ADC55-1-8 (15 µg/mL) on SHP77 cells, anti-human IgG Alexa Fluor 488.

Chain of DLL3 on the surface of NCI-H209, SHP77, NCI-H526, NCI-H82 and NCI-H69 cells (human) (Q9NYJ7 27-618): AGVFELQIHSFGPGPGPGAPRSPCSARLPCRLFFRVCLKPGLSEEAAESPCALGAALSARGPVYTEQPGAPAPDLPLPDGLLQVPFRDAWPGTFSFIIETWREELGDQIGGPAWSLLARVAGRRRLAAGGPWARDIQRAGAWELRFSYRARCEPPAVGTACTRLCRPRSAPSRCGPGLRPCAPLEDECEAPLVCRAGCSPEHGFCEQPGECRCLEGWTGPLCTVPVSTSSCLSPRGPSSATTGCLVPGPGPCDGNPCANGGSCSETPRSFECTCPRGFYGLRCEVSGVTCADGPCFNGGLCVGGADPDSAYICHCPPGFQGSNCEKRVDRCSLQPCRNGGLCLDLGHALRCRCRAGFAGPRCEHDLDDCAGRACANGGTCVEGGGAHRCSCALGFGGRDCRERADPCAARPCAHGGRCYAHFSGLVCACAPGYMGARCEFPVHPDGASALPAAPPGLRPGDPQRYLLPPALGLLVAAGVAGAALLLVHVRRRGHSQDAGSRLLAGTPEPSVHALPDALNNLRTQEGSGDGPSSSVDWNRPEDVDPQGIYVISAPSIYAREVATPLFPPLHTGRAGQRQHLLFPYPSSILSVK

B1: D-ADC55-1-8 (antibody, human IgG1, kappa, L234A L235A, V domains shown)
VH: QVQLVQSGAEVKKPGASVKVSCKASGYTFTDYYMKWVRQAPGQRLEWMGAFNLNNGDTFYNQKFKGRVTITRDTSASTAYMELSSLRSEDTAVYYCARDVYGYGDYWGQGTSVTVSS
VL: DIVMTQSPDSLAVSLGERATINCRASKSVSTSGYSYMHWYQQKPGQPPKLLIYLASNLDSGVPDRFSGSGSGTDFTLTISSLQAEDVAVYYCQHSRELPYTFGGGTKLEIKR
modifications: linker-drug LD55-1 (exatecan payload) conjugated to sulfhydryls of reduced interchain disulfide cysteines; average DAR 8.0 per antibody
Consider B1, for which the DLL3+ % in experiment [1] was 44.4%; in experiment [2], 11.2%; in experiment [3], 29.1%; in experiment [4], 5.29%; in experiment [5], 35.8%. In addition, the Experimental well: negative control ratio in experiment [1] is 7.73; in experiment [2] it was 5.02; in experiment [3], 3.73; in experiment [4] it was 3.03; in experiment [5], 3.23.
